How the values were obtained:
[1] = molecular target: GST-TKJMΔ (intracellular domain of the EGFR lacking the first 13 amino acids of the juxtamembrane region, fused to glutathione S-transferase); experiment: cross-linking; total protein extracts of E. coli treated with BS3 or glutaraldehyde, western blot with anti-GST antibody; control without cross-linking agent
[2] = molecular target: glutathione S-transferase (GST); experiment: as above

glutathione S-transferase (GST), sequence (P08515 2-218): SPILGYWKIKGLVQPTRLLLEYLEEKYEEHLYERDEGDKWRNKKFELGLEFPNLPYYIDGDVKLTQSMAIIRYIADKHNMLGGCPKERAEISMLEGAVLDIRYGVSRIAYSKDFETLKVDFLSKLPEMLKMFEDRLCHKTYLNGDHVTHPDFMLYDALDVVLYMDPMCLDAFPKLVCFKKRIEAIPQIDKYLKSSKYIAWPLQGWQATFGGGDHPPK

Substance | stoichiometry N [1] | stoichiometry N [2]
GST-TKJMΔ (intracellular domain of the EGFR lacking the first 13 amino acids of the juxtamembrane region, fused to glutathione S-transferase) (domain or fragment) | 2 | 
glutathione S-transferase (GST) (natural protein) |  | 2

— paper PMC3800664
